In patent publication US11104735B2, “Inhibition of cytokine-induced SH2 protein in NK cells” (The Walter and Eliza Hall Institute of Medical Research, priority 2015, dated 2021):

B1: CIS-SH2-BC complex: recombinant trimeric complex of human GST-CIS construct (hCIS-SH2; residues 66-258) and Elongins B and C (protein)
chain: MVLCVQGSCPLLAVEQIGRRPLWAQSLELPGPAMQPLPTGAFPEEVTEETPVQAENEPKVLDPEGDLLCIAKTFSYLRESGWYWGSITASEARQHLQKMPEGTFLVRDSTHPSYLFTLSVKTTRGPTNVRIEYADSSFRLDSNCLSRPRILAFPDVVSLVQHYVASCAADTRSDSPDPAPTPALPMSKQDAPSDSVLPIPVATAVHLKLVQPFVRRSSARSLQHLCRLVINRLVADVDCLPLPRRMADYLRQYPFQL
modifications: left off: small tags and cut ends
notes: recombinant trimeric complex of human GST-CIS construct (hCIS-SH2; residues 66-258) and Elongins B and C
B2: CIS-ΔN34: human CIS lacking the N-terminal 34 residues, in complex with elongins B and C (protein, UniProt Q9NSE2 35-258, looked up, fragment)
chain: QPLPAGAFLEEVAEGTPAQTESEPKVLDPEEDLLCIAKTFSYLRESGWYWGSITASEARQHLQKMPEGTFLVRDSTHPSYLFTLSVKTTRGPTNVRIEYADSSFRLDSNCLSRPRILAFPDVVSLVQHYVASCTADTRSDSPDPAPTPALPMPKEDAPSDPALPAPPPATAVHLKLVQPFVRRSSARSLQHLCRLVINRLVADVDCLPLPRRMADYLRQYPFQL
modifications: complex with elongins B and C

Legend:
JAK1 = JAK1 (Homo sapiens, UniProt P23458); assay: In vitro kinase inhibition assay, JAK1 kinase domain (JH1) with STAT5b substrate peptide; assay type: biochemical
Method: Protein kinase assays, including high throughput kinase assays are known in the art as described in, e.g., in Babon et al. (2013) and Von Ahsen et al. (2005). In one exemplary embodiment 130 μM STAT5b peptide (SEQ ID NO:18 […]) is incubated with 5 nM human JAK1 (see SEQ ID NO:11 for corresponding amino acid sequence) at 25° C. for 30-60 min in 20 mM Tris pH 8.0, 100 mM NaCl, 5 mM 2-mercaptoethanol, 0.2 mg ml^−1 bovine serum albumin, 2 mM MgCl2, 100 μM ATP and 1 μCi γ-[^32P]ATP. […] After incubation, the reaction is spotted onto P81 phosphocellulose paper and quenched in 5% H3PO4. The paper is then washed (4×200 ml, 15 min) with 5% H3PO4 and exposed to a phosphorimager plate. Quantitation is performed using phosphorimager software and IC50 curves are then calculated based on integrated pixel counts.
Kinase inhibition assays were performed essentially as described (Babon et al., 2012). Briefly, 130 μM STAT5b peptide (SEQ ID NO:18 […]) was incubated with 5 nM JAK1 at 25° C. for 30-60 min in 20 mM Tris pH 8.0, 100 mM NaCl, 5 mM 2-mercaptoethanol, 0.2 mg ml^−1 bovine serum albumin, 2 mM MgCl2, 100 μM ATP and 1 mCi γ-[32P]ATP. […] After incubation, the reaction was spotted onto P81 phosphocellulose paper and quenched in 5% H3PO4. The paper was washed (4×200 ml, 15 min) with 5% H3PO4 and exposed to a phosphorimager plate (Fuji). Quantitation was performed using Fuji software and IC50 curves calculated using Graphpad Prism.

[1] = target: T1, JAK1 phosphopeptide (JAK1-Y1034) (Homo sapiens, UniProt P23458); assay: ITC, CIS constructs binding to JAK1 phosphopeptide; conditions: CIS constructs with elongins B and C
T1 construct: purchased Genscript
Method: 300 μM phosphopeptides were titrated into a 30 μM solution of the GST-CIS-SH2-BC ternary complex. ITC titration curves are shown. The titration curves all fitted well to a single-site model.
Isothermal calorimetric titrations were performed with a Microcal ITC200 (GE Healthcare). Phosphopeptides were obtained from Genscript. An optimised GST-CIS protein construct was prepared in which the internal PEST region ([…]) was deleted. The resulting ternary GST-CIS-SH2-SB complexes were dialysed against buffer (20 mM Tris pH 8.0, 100 mM NaCl, 2 mM 2-mercaptoethanol). Experiments were performed at 298 K unless stated otherwise. Typically, 12×3.15 μl injections of 300 μM phosphopeptides were titrated into a 30 μM solution of the GST-CIS-SH2-SB ternary complex. The heat of dilution of GST-CIS-SH2-BC was subtracted from the raw data of the binding experiment. Data were analysed using the evaluation software, Microcal Origin version 5.0. The binding curve fitted a single-site binding mode and all KD values were determined from duplicate experiments.

JAK1, sequence (P23458 875-1153 limits assumed): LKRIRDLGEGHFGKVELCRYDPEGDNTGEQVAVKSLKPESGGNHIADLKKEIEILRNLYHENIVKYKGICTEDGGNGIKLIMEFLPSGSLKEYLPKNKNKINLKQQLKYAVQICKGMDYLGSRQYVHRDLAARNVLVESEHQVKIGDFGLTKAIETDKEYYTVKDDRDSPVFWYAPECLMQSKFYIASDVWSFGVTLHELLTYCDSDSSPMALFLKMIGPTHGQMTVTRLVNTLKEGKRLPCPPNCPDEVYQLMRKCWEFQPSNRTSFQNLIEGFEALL

| IC50 (JAK1; JAK1 JH1, in vitro kinase reaction, read-out: IC50, inhibition of JAK1 phosphorylation of a substrate peptide) [nM] | Inhibition of JAK1 relative to inhibition of JAK2, JAK3 or TYK2 (JAK1; JH1 domains of all four JAKs) [fold] | Lower efficiency of JAK1 inhibition than SOCS1 (JAK1; compared with SOCS1) [fold] | Binding affinity (ITC) to JAK1 phosphopeptide [1] | Molecule |
| --- | --- | --- | --- | --- |
| 120 ± 20 | ≥ 20 | 100 |  | B1 |
|  |  |  | greatest reduction in binding | B2 |
